Results from patent US20180263259A1.

Biological target: ground chicken feathers (keratin)

Question: Which Soluble dry matter yield (%) does the source give for FoodPro® PXT (enzyme) here?
Answer: The Soluble dry matter yield (%) was 48.3%.
